The target in experiment [1] is M1.HpyAVI, DNA N6-adenine methyltransferase from Helicobacter pylori 26695 (Helicobacter pylori 26695). In words: crystal structure; cofactor-free (3.0 Å, four monomers in the asymmetric unit) and AdoMet-bound (3.1 Å, eight monomers) crystals; dimer with the two monomers related by a two-fold axis; interface analysed with PDBePISA.
The target is the same in experiment [2]. In words: SEC; Superdex 75 10/300 column on FPLC, 0.05, 0.1, 0.2, 0.5 mg/ml protein loaded; calibrated with gel filtration calibration kit LMW. Background: In gel filtration, larger molecules generally elute earlier.

The stoichiometry N is a count of units in the complex or per binding partner. In the case of “M1.HpyAVI, DNA N6-adenine methyltransferase from Helicobacter pylori 26695 (enzyme)”, the stoichiometry N in experiment [1] and in experiment [2] was 2 each time.

The record behind these values is article PMC5173035.
